± gives the uncertainty stated by the source.
B1: Zinc finger homeobox protein 4, residues 2183 to 2238; numbered along this chain, Q86UP3 (parent)
chain: SSRTRFTDYQLRVLQDFFDTNAYPKDDEIEQLSTVLNLPTRVIVVWFQNARQKARK

Variants of: B1
Test: abundance fitness (aPCA) (normalised: wild type 0, dead -1); higher = more abundant; growth selection in yeast, the domain comes from the species named
Conditions: Homo sapiens

| Variant | abundance fitness |
| --- | --- |
| SSRTRFTDYQLRVLGDFFDTNAYPKDDEIEQLSTVLNLPTRVIVVWFQNARQKARK [Q15G] | -0.102 ± 0.082 |
| SSRTRFTDYQLRVLQDFFDTNAYPKDDEIEQLSTMLNLPTRVIVVWFQNARQKARK [V35M] | 0.058 ± 0.15 |
| SSRTRFTDYQLRVLQDFFDTNAYPKDDEIEQLSTVLNLPTRVIVVWFQNACQKARK [R51C] | -0.128 ± 0.24 |
| SSRTRFTDYQLRVLQDFFDTNAYPKDDEIEQLSTVLNLPTRVIVVWFQNAGQKARK [R51G] | -0.317 ± 0.1 |
| SSRTRFTDYQLRVLQDFFDTNAYPKDDEIEQLSTVLNLPTRVIVVWFQNAKQKARK [R51K] | 0.035 ± 0.26 |
| SSRTRFTDYQLRVLQDFFDTNAYPKDDEIEQLSTVLNLPTRVIVVWFQNAAQKARK [R51A] | -0.24 ± 0.13 |
| SSRTRFTDYQLRVLQDFFDTNAYPKDDEIEQLSTVLNLPTRVIVVWVQNARQKARK [F47V] | -0.264 ± 0.11 |
| SSRTRFTDYQLRVLQDFFDTNQYPKDDEIEQLSTVLNLPTRVIVVWFQNARQKARK [A22Q] | 0.005 ± 0.17 |
| SSRTRFTDYQLRVLQDFFDTNAYPKDDEIEQLSTVLNLPTRVIVVWFQNARQRARK [K53R] | -0.137 ± 0.079 |
| SSRTRFTDYQLRVLQDFFDTNAYPKDDEIEQLSTVLNLPTRVIVVWFQNARQIARK [K53I] | -0.124 ± 0.16 |
| SSRTRFTDYQLRVLQDFFDTNAYPKDDEIEQLSTVLNLPTRVIVVWFQMARQKARK [N49M] | -0.168 ± 0.14 |
| SSRTRFTDYQLRVLQDFFDTNAYPKDDEIEQLSTVLNLPTRVIVVWFQQARQKARK [N49Q] | -0.355 ± 0.19 |
| SSRTRFTDYQLRVLQDFFDTNAYPKDDEIEQLSTVLNLPTRVIVVWFQGARQKARK [N49G] | -0.011 ± 0.084 |
| SSRTRFTDYQLRVLQDFFDTNAYPKDDEIEQLSTVLNLPTRVIVVWFQDARQKARK [N49D] | 0.108 ± 0.17 |
| SSRTRFTDYQLRVLQDFFDTNAYPKDDEIHQLSTVLNLPTRVIVVWFQNARQKARK [E30H] | 0.008 ± 0.14 |
| SSRTRFTDYQLRVLQDFFDTNAYPKDDEINQLSTVLNLPTRVIVVWFQNARQKARK [E30N] | -0.166 ± 0.15 |
| SSRTRFTDYQLRVLQDFFDTNAYPKDDEILQLSTVLNLPTRVIVVWFQNARQKARK [E30L] | -0.057 ± 0.098 |
| SSRTRFTDYQLRVLQDFFDTNAYPKDDEIWQLSTVLNLPTRVIVVWFQNARQKARK [E30W] | -0.366 ± 0.12 |
| SSRTRFTDYQLRVLQDFFDTQAYPKDDEIEQLSTVLNLPTRVIVVWFQNARQKARK [N21Q] | -0.497 ± 0.13 |
| SSRTRFTDYQLRVLQDFFDTNAYPKDTEIEQLSTVLNLPTRVIVVWFQNARQKARK [D27T] | -0.256 ± 0.32 |
| SSRTRFTDYQLRVLQDFFDTNAYPKDHEIEQLSTVLNLPTRVIVVWFQNARQKARK [D27H] | 0.048 ± 0.33 |
| SSRTRFTDYQLRVLQDFFDTNAYPKDGEIEQLSTVLNLPTRVIVVWFQNARQKARK [D27G] | 0.162 ± 0.26 |
| SSRTRFPDYQLRVLQDFFDTNAYPKDDEIEQLSTVLNLPTRVIVVWFQNARQKARK [T7P] | -0.368 ± 0.16 |
| SSRTRFGDYQLRVLQDFFDTNAYPKDDEIEQLSTVLNLPTRVIVVWFQNARQKARK [T7G] | -0.333 ± 0.086 |

| Variant | abundance fitness |
| --- | --- |
| SSRTRTTDYQLRVLQDFFDTNAYPKDDEIEQLSTVLNLPTRVIVVWFQNARQKARK [F6T] | -0.266 ± 0.086 |
| SSRTRFTDYQLRVLQDFFDTNAYPKDDEIEQLSTVLNLPTRVIVGWFQNARQKARK [V45G] | 0.047 ± 0.1 |
| SSRTRFTDYQLRVLQDFFDTNAYPKDDEIEQLSTVLNLPTRVIVNWFQNARQKARK [V45N] | -0.402 ± 0.44 |
| SSRTRFTDYDLRVLQDFFDTNAYPKDDEIEQLSTVLNLPTRVIVVWFQNARQKARK [Q10D] | -0.454 ± 0.087 |
| SSRTRFTDYMLRVLQDFFDTNAYPKDDEIEQLSTVLNLPTRVIVVWFQNARQKARK [Q10M] | -0.14 ± 0.11 |
| SSRTRFTDYSLRVLQDFFDTNAYPKDDEIEQLSTVLNLPTRVIVVWFQNARQKARK [Q10S] | -0.335 ± 0.067 |
| SSRTRFTDYLLRVLQDFFDTNAYPKDDEIEQLSTVLNLPTRVIVVWFQNARQKARK [Q10L] | -0.736 ± 0.075 |
| SSRTRFTDYQLRVLQDFFDTNAYPKDDEIEQLSTVLNLPTRVIVVWFNNARQKARK [Q48N] | -0.132 ± 0.18 |
| SSRTRFTDYQLRVLQDFFDTNAYPKDDEIEQLSTVLNLPTRVIVVWFHNARQKARK [Q48H] | -0.418 ± 0.26 |
| SSRTRFTDYQLRVLQDFFDTNAYPKDDEIEQLSTVLNLPTRVIVVWFMNARQKARK [Q48M] | -0.278 ± 0.19 |
| SSRTRFTDYQLRVLQDFFDTNAYPKDDEIEQLSTVLNLPTRVIVVWFQNARYKARK [Q52Y] | -0.256 ± 0.28 |
| SSRTRFTDYQLRDLQDFFDTNAYPKDDEIEQLSTVLNLPTRVIVVWFQNARQKARK [V13D] | 0.079 ± 0.5 |
| SSRTRFTDYQLRPLQDFFDTNAYPKDDEIEQLSTVLNLPTRVIVVWFQNARQKARK [V13P] | -1.02 ± 0.31 |
| SSRTRFTDYQLRMLQDFFDTNAYPKDDEIEQLSTVLNLPTRVIVVWFQNARQKARK [V13M] | 0.44 ± 0.18 |
| SSRTRFTDYQLRVLQDFFDTNAYPKDDEIEQLSTVLNLPTRVIVVWFQNLRQKARK [A50L] | -0.256 ± 0.12 |
| SSRTRFTDYQLRVLQDFFDTNAYPKDDEIEQLTTVLNLPTRVIVVWFQNARQKARK [S33T] | -0.005 ± 0.13 |
| SSRTRFTDYQLRVLQDFFDTNAYPKDDEIEQLLTVLNLPTRVIVVWFQNARQKARK [S33L] | -0.946 ± 0.25 |
| SSRTRFTDYQLRVLQDFFDTNAYPKDDDIEQLSTVLNLPTRVIVVWFQNARQKARK [E28D] | 0.031 ± 0.14 |
| SSRTRFTDYQLRVLQDFFDTNAYPKDDEIEQLSTVLNLPTRVIVVEFQNARQKARK [W46E] | -0.396 ± 0.27 |
| SSRTRFTDYQLRVLQDFFDTNAYPKDDEIEQLSTVLNLPTRVIVVWFQNARQKARR [K56R] | -0.188 ± 0.14 |
| SSRTRFTDYQLRVLQDFFDTNAYPKDDEIEQLSTVLNLPTRVIVVWFQNARQKARD [K56D] | -0.06 ± 0.23 |
| SSRTRFTDCQLRVLQDFFDTNAYPKDDEIEQLSTVLNLPTRVIVVWFQNARQKARK [Y9C] | -0.102 ± 0.13 |
| SSRTRFTDYQLRVLQDFFDTNAYPKDDEIERLSTVLNLPTRVIVVWFQNARQKARK [Q31R] | -0.023 ± 0.077 |
